Data taken from a protein production outcome set (Wang et al. 2014).

Assay: label from the status in PepcDB records

Sequence	protein production
MAGEKAQKKGKEKWKEKTWYTVESPPYLGSKEVTVALGEDPESMVNRIVEVPISDLTGNFKKSNEKALFRITGCEGTKCKTIFIGHYIGDDYIRRLVRRRKERIDIIEDVKTSDGSIITVKIVVVSDGKLTNTKKSEIRKALTSFIVSKGSQLSYADFVRYLIGDDSYNDMVEATKNIYPLRKIEIRKSELVSLSGMQEPQKNEPAPGGEAIAQNLEHHHHHH	not failed
MAGESGAPIRCRLLPIDMDAALGPPEQMAELEEDLTPMMAQYYELCRQYDDALVLFQVGDFYEAFCAAAKRVARLCEITLTQREDSTGEYPMAGIPIDNAESYVETLLDAGYRVAIADQVEDPDEVSGVVERAVTRIVTPGTLTESELLGGADNNYVAALTAGERYGLALLDISTGDCYATSVGSESAVADELSRFGPAEAIVGPDVDVDRDAVFGPACLVTRYDADAFAQDRAEDRVGQYFGPPERLLAGGAEIRACGGLLAYAEYTRGSSGAVGPDGEPVDPDVDPAGTLDYLNHLTRYDPREYMLLDAVAVESLELFKRRSVRGHENRTLVDTVDETACALGRRKLTDWLRRPLLDADRIEARHGAVAELQRDPATREELSALLAEVYDLERLISRVSRGRANARDLRSLAATLSVVPDIRDHLADADARLLADLHATLDPLAETREEIEAAIRPDPPQQVTEGGVIREGYDEELDRLRSTEQSGKEWIDELEASERERTGIDSLKVGHTSVHGYYIEVTNANLDAVPEDYQRRQTLKNSERYYTPALKEREDEILRAESAADDLEYDLFCAVRDEVADEAERVQALADRLARLDVLVSFAEVAAQYDYCRPTVGSDGIDVTAGRHPVVERTEDAFIPNDTHLGSGPVPASRDGSDDGVTADDIQPFLAVVTGPNMSGKSTYMRQVALICLLAQSGSFVPAKAADLPILDRVFTRVGASDDIAGGRSTFMIEMTELATILDAATENSLVLLDEVGRGTSTADGLAIARAVTEYLHDEVGAYTLFATHHHDLTAVAAALSGATNRHFETSREDGDVRFDHELAPGPAAASYGVEVASMAGVPDSVVERSRDLLADAETADTGVEATRETEVASEPRPGTRADSETDSTATETTGPTENGAASAPAGEATSDDHAQEVFQTNGAAAEDELPESVAQQLASLDVATMTPIEAMNALADLQDRIE	failed
MAGGGNRRDEGSITIQSTNLFAALDTRKKKKKSDKAGKSKGSSKSREPEKEPEPQVYWAPTPLKVKSWADIDDEDDDDDYYATTAPPQSGWSTSLPSHTDSKDVHVEESESEEDILDEGDDDVEEEQEQETEVQVHPEPEVKKAPEVPAPPKEAERQLSKKERKKKELAELEALLADFGVAPKENNGLEESQEAGQEKKEDVNGEGEKKENAAGGESKASKKKKKKDKQKEVKESQEQQANNNADAVDEAAGSEPTEEESPIDVKERIKKLASMKKKKSGKEVDAAAKAAAEEAAARRKKLAAAKKKEKNHYNQQPVR	failed
MAGHTDNEITIAAPMELVWNMTNDIEKWPGLFSEYASVEVLGRDDDKVTFRLTMHPDADGKVWSWVSERVADPVTRTVRAQRVETGPFQYMNIVWEYAETAEGTVMRWTQDFAMKPDAPVDDAWMTDNINRNSRTQMALIRDRIEQAAGERRTASVLADLEHHHHHH	not failed
MAGKLDPYRRKRHFGATPEPEGAHGHHAKAGAKPAARASARGTHPLRFVIQEHHARRLHYDFRLELDGTLKSWAVPKGPSFDPSVKRLAVHVEDHPLEYASFEGQIPEGHYGAGSVVVWDEGTWTPDGGVAQAREGYRAGKLTFRLDGEKLHGGWALVRSGRQEGRQEQWLLIKERDDDARSMDEFDVVGERPGSVHDGAASARADAKNGSARGSRSGQREKSGTSAARHDDHRHDGHAGTPIDPSRIEGAVRAPLPEHVAPQLATLVDGPPTQGDWCYELKFDGYRILARISGKGARRHVKLMTREGRDWTAKLRAQRDALAALDVDAAWLDGEAVVLGKNGLPDFQALQNAFGGGHSDEITLFVFDLPYLDGYDLRDAPLTARRALLEPLFADSDPTRLRFSPDLGNDVASLIASACDTGLEGLIGKRAESRYRAGRSPAWIKLKCRRRQEFVIGGYTEPSGSRHGFGALLLGVHEPAADGKRRRGPGPLRYVGRVGTGFDTRMLDRLTPILRKHERDTMPFDPPPRERSRTPVHWIEPVLVAECEFAEWTGDGIVRQAAFIALREDKPAARIVREVPKHTETEVQMEQRQTTRHERHKPKGAARAERDTSDASDGKHPARSRGSRRAEADDTGPDQLGRVRISHPERVIDSHSGTRKIDLARYWQWVAPWLLRDLKGRPVSLVRAPGDISGELFFQKHAERREIPFVTQHEGLDPGHGPLLSLDSVDALLGAAQMGTIELHTWNAHASNIERPDRIVFDLDPDPALPWSAMIDAAQLVRGLLDELGLISFCKTSGGKGLHVVVPITRHMGWDEVKDFSRAVAQHVAGALPDRFTATMGPKHRRGKIFIDYLRNGRGASTIAAYSVRARPGLGVSVPLRWDEVPDTTGGAQWTIDTLHERLDRLKRDPWDGYDDTRQRITAQMRARLGTS	failed
MAGKRKKPKDTDLPPRVYRGKSKYEFHPARGGSISLCPLDAPISQVWSDYEKVNDRLPEKVTLNKLTEQFLHSMDFCELAIETQKDYRKYSLKLLPVFGEMSPDNIRPEHIRKYMDKRGITSRTQANREKTFLSRVYRWGYERGMVKGNPCRGVKQFTEKARDRYITDEEYDAVYQVAPDVVRVAMEIAYLCLARQADVLALRRDQLREPGIYIKQGKTAARQIKAWSERLRDAITLAESLPLKSGISSVYIIHQRTGLRYTRDGFNSKWRKAREVAKKTYPELDFNFTFHDLKAKGVSDLEGTLSEKQAISGHKNMGQTARYDRKIKIVPVVGNQKK	failed
MAGLPGSVALIIVATAVIWKGSAYFERAAERLSKYYGLPVAVHGAIVVAVGSSFPEISSVVISTVIHDEFSLGVGAIVGSAIFNLLVIPALAALSSEELRSTRDIVHKDAQFYIISVLILFIVFALGATYVPGGTNRAAILTPTLVAVPLMAYGIYVFLHQQDASEHVADETHSVRPGREWGMLGVGLVIITVGVEGMVQGALSLGVIFDTPTFLWGLTVIAAGTSLPDAFVSVRAAKDDDSVTSLTNVLGSNTFNLLVAIPVGVLLAGRATIDFLVAIPTMGFLGAATLVFIVFIRTDLELTDREAYTLLGLYVVFVCWMALESVGLIETVSGI	failed
MAGNFDSEERSSWYWGRLSRQEAVALLQGQRHGVFLVRDSSTSPGDYVLSVSENSRVSHYIINSSGPRPPVPPSPAQPPPGVSPSRLRIGDQEFDSLPALLEFYKIHYLDTTTLIEPVSRSRQGSGVILRQEEAEYVRALFDFNGNDEEDLPFKKGDILRIRDKPEEQWWNAEDSEGKRGMIPVPYVEKYRPASASVSALIGGNQEGSHPQPLGGPEPGPYAQPSVNTPLPNLQNGPIYARVIQKRVPNAYDKTALALEVGELVKVTKINVSGQWEGECNGKRGHFPFTHVRLLDQQNPDEDFS	failed
MAGRRRRPTTDRTIGGLSFSQRELRDLLVAWLALGLAFTFFLEREFRRIVFGQFGGLSGAEIASTFAVSLLTVGVGFLLHELAHKVVAVRFGQIAAFKADYRMLGFAVLGGLVGFLFAAPGAVVHRGRLTAKQHGLIAVAGPVTNLALAVVFLVPFFLTASMGIGGFLRELTEMGLQINLLLAGFNMLPFGPLDGRTVREWSTPVFLAVAVPSILLGVGALFVL	failed
MAGSVGEETEPEWIKRVKLEGAVPCLKPDDNCKNGWTTPSPDTFMVRGPKYFSDKVKIPAGDFLLKPLGFDWIKGPKKLSEILSYPSSRIRKVIDEEFQKDGTKPFVWAFNLQLPHKDNYSAVAYFVTTEPILEGSLMDRFLKGDDGFKKSRLKLIANIVKGPWIVRKAVGEQAICVIGRALSCKYVSGENFVEIDVDIGSSMVASAIVHLAFGYVTTLTVDLAFLIESQTEAELPEKLLGAVRFSELQTESATSIELSSSTSNDQWDQTTSERSSWWKSIGNGFSNLLNQDTANMNNTSHGDIQKDEHVQKQ	failed
MAHEAQKAIARNSLLIRSLPEQHVDALLSQAVWRSYDRGETLFLQEEKAQAIHVVIDGWVKLFRMTPTGSEAVVSVFTRGESFGEAVALRNTPYPVSAEAVTPCEVMHIPSPVFVSLMRRDPEICISILATTFGHLHSLVAQLEQLKAQTGAQRVAEFLLELCDCDTGACEVTLPYDKMLIAGRLGMKPESLSRAFSRLKAAGVTVKRNHAEIEDIALLRDYAESDPADSWSKS	not failed
MAHGIPSQGKVTITVDEYSSNPTQAFTHYNINQSRFQPPHVHMVDPIPYDTPKPAGHTRFVCISDTHSRTDGIQMPYGDILLHTGDFTELGLPSEVKKFNDWLGNLPYEYKIVIAGNHELTFDKEFMADLVKQDYYRFPSVSKLKPEDFDNVQSLLTNSIYLQDSEVTVKGFRIYGAPWTPWFNGWGFNLPRGQSLLDKWNLIPEGIDILMTHGPPLGFRDWVPKELQRVGCVELLNTVQRRVRPKLHVFGGIHEGYGIMTDGYTTYINASTCTVSFQPTNPPIIFDLPNPQGS	failed
